Data published in patent US9422583B2, “Stereospecific carbonyl reductases” (RUTGERS, THE STATE UNIVERSITY OF NEW JERSEY, priority 2009, dated 2016).

How the values were obtained:
O=C(CO)c1ccccc1 = experiment: reduction of 2-hydroxyacetophenone with NADPH, apparent kinetic parameters by Lineweaver-Burk plots; assay type: biochemical, Candida parapsilosis
Procedure: (§1) Since environmental pH value can have an influence on the stereochemistry of enzymatic reactions (Secundo and Phillips, Enzyme Microb. Technol., 19, 487-492 (1996)), the effect of the reaction pH on the activities of SCRs catalyzing 2-hydroxyacetophenone reduction was also investigated. […] Subsequently, the enzymes were evaluated under their individual optimal pH, and apparent kinetic parameters were further measured by double reciprocal Lineweaver-Burk plots at various 2-hydroxyacetophenone concentrations with fixed NADPH concentrations. […] The values are the average of three independent experiments.
(§2) Enzyme Assays. Carbonyl reductase activity was measured by a continuous spectrophotometric assay using 2-hydroxyacetophenone as a substrate. One unit of enzyme activity was defined as the amount of enzyme catalyzing the oxidation of 1 μmol NAD(P)H per min under the assay conditions. The standard assay mixture for the enzyme activity comprised of 0.1 M potassium phosphate buffer (pH 6.5), 0.3 mM NAD(P)H, 0.7 mM 2-hydroxyacetophenone and appropriate enzyme in a total volume of 100 μl. The decrease in the amount of the coenzyme was measured spectrophotometrically at 340 nm (extinction coefficient [ε]=6.22 mM^−1 cm^−1). Protein concentration was determined using Bradford reagents (Bio-Rad) with bovine serum albumin as a standard. The pH dependence of enzyme activity was determined over a pH range of 4.0 to 8.5 using the following buffers: 0.1 M acetate (pH 4.0 to 6.0), 0.1 M sodium phosphate (pH 6.0 to 8.0) and 0.1 M Tris-HCl (pH 8.0 to 8.5).

[1] = Carbonyl reductase activity and kinetic parameters, continuous spectrophotometric assay (NAD(P)H decrease at 340 nm); assay type: biochemical; settings: reduction of 2-hydroxyacetophenone
Procedure: Catalytic Properties of Recombinant SCRs. The enzymatic activities of SCR1, SCR2, and SCR3 were investigated for reduction of 2-hydroxyacetophenone.
as §1, §2

[2] = Substrate specificity of SCRs with NADPH as cofactor; assay type: biochemical
Text: The substrate specificity of SCRs was investigated under the same conditions as described above. Various carbonyl compounds including aryl ketones, aliphatic ketones, α- and β-ketone esters were used as the substrates with the cofactor of NADPH.

[3] = other: pH 6.0 (optimum pH), NADPH as cofactor at fixed concentration, average of three independent experiments
[4] = other: pH 5.5 (optimum pH), NADPH as cofactor at fixed concentration, average of three independent experiments
[5] = other: pH 4.5 (optimum pH), NADPH as cofactor
[6] = other: pH 5.0 (optimum pH), NADPH as cofactor at fixed concentration, average of three independent experiments
[7] = NADPH as cofactor, at optimum pH of each enzyme
[8] = compared with the other enzyme (SCR1 vs SCR3)

Molecule “Candida parapsilosis stereospecific carbonyl reductase SCR3, SEQ ID NO:2 (GenBank FJ939564), recombinant with C-terminal His6 tag (Lodderomyces parapsilosis CDC317)” has a Km (O=C(CO)c1ccccc1; [3]) of 4.68 mM and a Vmax (O=C(CO)c1ccccc1; [3]) of 32.3 µmol/min/mg.

For “Candida parapsilosis stereospecific carbonyl reductase SCR2, SEQ ID NO:3 (GenBank FJ939563), recombinant with C-terminal His6 tag (Lodderomyces parapsilosis CDC317)”, the Km (O=C(CO)c1ccccc1; [4]) was 4.81 mM and the Vmax (O=C(CO)c1ccccc1; [4]) was 8.83 µmol/min/mg.

“Candida parapsilosis CPADH, SEQ ID NO:1 (GenBank DQ675534) (Lodderomyces parapsilosis CDC317)” gave a Km (O=C(CO)c1ccccc1; [5]) of 5.83 mM and a Vmax (O=C(CO)c1ccccc1; [5]) of 18.3 µmol/min/mg.

With “Candida parapsilosis stereospecific carbonyl reductase SCR1, SEQ ID NO:4 (GenBank FJ939565), recombinant with C-terminal His6 tag (Lodderomyces parapsilosis CDC317)” the Km (O=C(CO)c1ccccc1; [6]) was 9.83 mM and the Vmax (O=C(CO)c1ccccc1; [6]) was 42 µmol/min/mg.

B1: CPADH: C. parapsilosis enzyme encoded by cpadh gene, GenBank DQ675534, comparison enzyme in Table 1 (protein, listed as Candida parapsilosis)
chain: MGEIESYCNKELGPLPTKAPTLSKNVLDLFSLKGKVASVTGSSGGIGWAVAEAYAQAGADVAIWYNSHPADEKAEHLQKTYGVHSKAYKCNISDPKSVEETISQQEKDFGTIDVFVANAGVTWTQGPEIDVDNYDSWNKIISVDLNGVYYCSHNIGKIFKKNGKGSLIITSSISGKIVNIPQLQAPYNTAKAACTHLAKSLAIEWAPFARVNTISPGYIDTDITDFASKDMKAKWWQLTPLGREGLTQELVGGYLYLASNASTFTTGSDVVIDGGYTCP
In the case of B1, the “pH (optimum pH for each enzyme)” value ([1]; NADPH as cofactor) is reported as 4.5 and the Specific activity [1, 7] is reported as 2.70 μmol/min mg protein.

B2: SCR2: stereospecific carbonyl reductase from C. parapsilosis, GenBank FJ939563, recombinant with C-terminal His6 tag (protein, listed as Candida parapsilosis)
chain: MGEIESYCNKELGPLPTKAPTLSKNVLDLFSLKGKVASVTGSSGGIGWAVAEAYAQAGADVAIWYNSHPADEKAEHLQKTYGVRSKAYKCNISDPKSVEETISQQEKDFGTIDVFVANAGVPWTEGPEINVDNYDSWNKIINLDLNGVYYCAHTVGKIFKKNGKGSLVITSSMSGTIVNVPQLQAAYNAAKAACTHLTKSLAVEWAPFARVNCVSPGYIATEISDFVEKDMKAKWWQLTPLGREGLAQELVGAYLYLASNASTYTTGANLAVDGGYTCP
modifications: C-terminal His6 tag
In the case of B2, the “pH (optimum pH for each enzyme)” value ([1]; NADPH as cofactor) is reported as 5.5, the Specific activity [1, 7] is reported as 1.55 μmol/min mg protein and the Specific activity ([1]; under the assay conditions) is reported as 1.55 µmol/min/mg protein.

B3: SCR1: stereospecific carbonyl reductase from C. parapsilosis, GenBank FJ939565, recombinant with C-terminal His6 tag (protein, listed as Candida parapsilosis)
chain: MSKDETISYCNDQLGPLPTTAPKVSDNVTDLFSFKGKVVSVTGSSGGIGWAVAEGFAQAGADVAIWYHSHNADEKAKYLQEKYGVKSIAYGCNIGVAEEVQKTVDQIESDFGKIDVFVANAGIPWTDGPEIDVQDLSKWTKIIDTDLNSVYYCAHAIGPIFRKQGKGSLVITASMSATIVNVPQLQAAYNVAKAGVKHLSKSLAVEWAPFARVNSVSPGYISTNLTTFANPDLQKKWVQLTPLGREGHPKELVGAYLYLASDAATFTTGCDLAVDGGYTVP
modifications: C-terminal His6 tag
In the case of B3, the “activity for reduction of ethyl 4-chloro-3-oxobutyrate” value ([2]; among the tested β-ketoesters) is reported as “highest activity”, the “activity to m-Cl-2-hydroxyacetophenone” value [2, 8] is reported as “higher activity” and the “pH (optimum pH for each enzyme)” value ([1]; NADPH as cofactor) is reported as 5.0. The Specific activity [1, 7] was 5.16 μmol/min mg protein.

B4: SCR3: stereospecific carbonyl reductase from C. parapsilosis, GenBank FJ939564, recombinant with C-terminal His6 tag (protein, listed as Candida parapsilosis)
chain: MGEIESYCNKELGPLPTKAPTLAKNVLDLFSLKGKVASVTGSSGGIGWAVAEAYAQAGADVAIWYNSHPADEKAEHLQKTYGVRSKAYKCNISDPKSVEETISQQEKDFGTIDVFVANAGIPWADGPVIDLENYDAWNKLINTDINGVFYCAHSIGKIFKKNGKGSLIITASLAGSVVTIPQQQTPYNTAKAACLHLAKSLAVEWAPFARVNTVSPGYFETEINGFADEDMREKWYQLTPLGRMGITEELVGGYLYFASNASTFTTGSDLIIDGGFTCP
modifications: C-terminal His6 tag
In the case of B4, the “specificity to p-Cl-2-hydroxyacetophenone” value [2, 8] is reported as “more specific”, the “pH (optimum pH for each enzyme)” value ([1]; NADPH as cofactor) is reported as 6.0 and the Specific activity [1, 7] is reported as 4.23 μmol/min mg protein.
